# Assay results reported in patent EP1177203B1.
# Assays:
# [1] = biological target: Bovine serum albumin (bovine) (UniProt P02769); test: adherence assay; V583 cells (46°C) on BSA-coated wells (negative control); no IgG
# [2] = biological target: Collagen type I (Sigma), immobilized; test: adherence assay; V583 cells (46°C) on CI-coated wells; no IgG
# Collagen type IV (Sigma) [3] = test: adherence assay; V583 cells (46°C) on CIV-coated wells; no IgG
# [4] = biological target: Mouse laminin (isolated from the EHS-sarcoma, Life Technologies) (mouse) (UniProt P19137); test: adherence assay; V583 cells (46°C) on LN-coated wells; no IgG
# [5] = biological target: Bovine Type I collagen (Collagen Corp.), immobilized on a CM5 sensor chip (bovine) (UniProt P02453); test: SPR (BIAcore 1000), Scatchard analysis of equilibrium responses, 1-70 µM Ace A over immobilised collagen; three measurements
# UniProt P02453, sequence (P02453 162-1217, chain 1 of 2): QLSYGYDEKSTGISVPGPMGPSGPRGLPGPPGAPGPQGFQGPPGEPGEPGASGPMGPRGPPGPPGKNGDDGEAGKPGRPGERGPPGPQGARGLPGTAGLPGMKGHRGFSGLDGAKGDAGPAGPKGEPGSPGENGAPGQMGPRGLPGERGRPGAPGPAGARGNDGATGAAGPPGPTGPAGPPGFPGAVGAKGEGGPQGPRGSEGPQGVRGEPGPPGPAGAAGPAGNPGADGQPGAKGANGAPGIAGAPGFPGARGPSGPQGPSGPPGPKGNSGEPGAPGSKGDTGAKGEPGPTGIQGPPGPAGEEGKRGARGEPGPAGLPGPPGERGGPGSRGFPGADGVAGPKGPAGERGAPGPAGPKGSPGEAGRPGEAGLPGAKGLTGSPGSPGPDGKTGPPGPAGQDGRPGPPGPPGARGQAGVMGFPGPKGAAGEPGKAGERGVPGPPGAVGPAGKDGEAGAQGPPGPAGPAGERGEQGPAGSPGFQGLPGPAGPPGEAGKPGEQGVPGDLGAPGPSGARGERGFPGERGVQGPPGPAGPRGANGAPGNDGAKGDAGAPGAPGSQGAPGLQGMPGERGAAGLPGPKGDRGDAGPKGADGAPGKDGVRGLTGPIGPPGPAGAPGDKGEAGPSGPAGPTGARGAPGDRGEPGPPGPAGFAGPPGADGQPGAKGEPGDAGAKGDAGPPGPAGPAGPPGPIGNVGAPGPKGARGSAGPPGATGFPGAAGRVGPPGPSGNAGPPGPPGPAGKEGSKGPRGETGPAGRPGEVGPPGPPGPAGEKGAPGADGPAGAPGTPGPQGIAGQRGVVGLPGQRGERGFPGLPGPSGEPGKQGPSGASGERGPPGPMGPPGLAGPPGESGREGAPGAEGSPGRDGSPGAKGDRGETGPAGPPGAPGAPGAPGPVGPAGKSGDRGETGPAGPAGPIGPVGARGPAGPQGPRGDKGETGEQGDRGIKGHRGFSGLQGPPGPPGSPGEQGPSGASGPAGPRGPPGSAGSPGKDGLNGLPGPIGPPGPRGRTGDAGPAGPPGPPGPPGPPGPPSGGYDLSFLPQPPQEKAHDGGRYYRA
# UniProt P02453, sequence (P02465 80-1117, chain 2 of 2, further chain): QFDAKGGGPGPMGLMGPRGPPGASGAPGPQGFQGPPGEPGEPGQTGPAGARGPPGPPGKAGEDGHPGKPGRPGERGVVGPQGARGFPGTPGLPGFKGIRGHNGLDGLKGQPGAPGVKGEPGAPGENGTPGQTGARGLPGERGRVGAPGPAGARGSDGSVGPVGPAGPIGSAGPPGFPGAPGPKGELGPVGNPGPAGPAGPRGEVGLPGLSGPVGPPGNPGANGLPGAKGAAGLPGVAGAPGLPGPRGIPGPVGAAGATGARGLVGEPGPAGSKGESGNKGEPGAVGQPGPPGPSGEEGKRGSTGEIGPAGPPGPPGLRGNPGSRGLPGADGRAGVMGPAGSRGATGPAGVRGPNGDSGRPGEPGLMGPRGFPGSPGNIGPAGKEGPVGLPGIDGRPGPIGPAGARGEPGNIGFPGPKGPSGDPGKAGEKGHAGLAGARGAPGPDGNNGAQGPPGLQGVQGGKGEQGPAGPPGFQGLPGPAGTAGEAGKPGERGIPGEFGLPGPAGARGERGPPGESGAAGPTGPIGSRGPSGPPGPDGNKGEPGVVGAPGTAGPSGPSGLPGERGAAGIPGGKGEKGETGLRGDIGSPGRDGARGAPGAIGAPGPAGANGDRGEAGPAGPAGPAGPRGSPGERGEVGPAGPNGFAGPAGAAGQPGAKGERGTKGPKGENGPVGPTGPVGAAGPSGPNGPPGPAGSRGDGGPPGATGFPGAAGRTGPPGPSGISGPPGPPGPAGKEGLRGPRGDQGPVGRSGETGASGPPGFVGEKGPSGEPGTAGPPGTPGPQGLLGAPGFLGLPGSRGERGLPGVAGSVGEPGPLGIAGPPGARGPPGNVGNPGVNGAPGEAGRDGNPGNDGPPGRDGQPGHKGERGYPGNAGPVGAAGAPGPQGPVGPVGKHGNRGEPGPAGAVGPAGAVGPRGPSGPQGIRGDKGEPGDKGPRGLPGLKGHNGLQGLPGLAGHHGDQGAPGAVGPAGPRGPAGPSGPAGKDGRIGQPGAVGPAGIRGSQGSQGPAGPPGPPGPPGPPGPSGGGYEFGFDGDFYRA
# [6] = biological target: Mouse laminin (isolated from the EHS-sarcoma, Life Technologies) (mouse) (UniProt P19137); test: adherence assay; MC02152 cells (46°C) on LN-coated wells; no IgG
# [7] = biological target: Collagen type I (Sigma), immobilized; test: adherence assay; 46°C-grown MC02152 cells on CI-coated wells
# Collagen type IV (Sigma) [8] = test: adherence assay; MC02152 cells (46°C) on CIV-coated wells; no IgG
# Collagen type IV (Sigma) [9] = test: adherence assay; 46°C-grown MC02152 cells on CIV-coated wells
# [10] = biological target: Mouse laminin (isolated from the EHS-sarcoma, Life Technologies) (mouse) (UniProt P19137); test: adherence assay; 37°C-grown MC02152 cells on LN-coated wells
# [11] = biological target: Collagen type I (Sigma), immobilized; test: adherence assay; MC02152 cells (46°C) on CI-coated wells; no IgG
# [12] = biological target: Mouse laminin (isolated from the EHS-sarcoma, Life Technologies) (mouse) (UniProt P19137); test: adherence assay; 46°C-grown MC02152 cells on LN-coated wells
# [13] = biological target: Collagen type I (Sigma), immobilized; test: adherence assay; 37°C-grown MC02152 cells on CI-coated wells
# Collagen type IV (Sigma) [14] = test: adherence assay; 37°C-grown MC02152 cells on CIV-coated wells
# [15] = biological target: Bovine serum albumin (bovine) (UniProt P02769); test: adherence assay; MC02152 cells (46°C) on BSA-coated wells (negative control); no IgG
# Collagen type IV (Sigma) [16] = test: adherence assay, 46°C-grown cells on CIV-coated wells
# [17] = biological target: Collagen type I (Sigma), immobilized; test: adherence assay; OG1RF cells (46°C) on CI-coated wells; no IgG
# Collagen type IV (Sigma) [18] = test: adherence assay; OG1RF cells (46°C) on CIV-coated wells; no IgG
# [19] = biological target: Mouse laminin (isolated from the EHS-sarcoma, Life Technologies) (mouse) (UniProt P19137); test: adherence assay; OG1RF cells (46°C) on LN-coated wells; no IgG
# [20] = biological target: Collagen type I (Sigma), immobilized; test: adherence assay, 35S-labelled 46°C-grown OG1RF cells on CI-coated wells (3.3% is the ace mutant TX5256)
# [21] = biological target: Mouse laminin (isolated from the EHS-sarcoma, Life Technologies) (mouse) (UniProt P19137); test: adherence assay; OG1RF cells (46°C) on LN-coated wells; no IgG; remark: listed apart in the source
# [22] = biological target: Bovine serum albumin (bovine) (UniProt P02769); test: adherence assay; OG1RF cells (46°C) on BSA-coated wells (negative control); no IgG
# [23] = biological target: Bovine serum albumin (bovine) (UniProt P02769); test: as above; remark: listed apart in the source
# Collagen type IV (Sigma) [24] = test: adherence assay; OG1RF cells (46°C) on CIV-coated wells; no IgG; remark: listed apart in the source
# [25] = biological target: Collagen type I (Sigma), immobilized; test: adherence assay; OG1RF cells (46°C) on CI-coated wells; no IgG; remark: listed apart in the source
# [26] = biological target: Mouse laminin (isolated from the EHS-sarcoma, Life Technologies) (mouse) (UniProt P19137); test: adherence assay, 46°C-grown cells on LN-coated wells
# [27] = biological target: Collagen type I (Sigma), immobilized; test: adherence assay, 46°C-grown cells on CI-coated wells
# UniProt P02769, sequence (P02769 25-607 limits assumed): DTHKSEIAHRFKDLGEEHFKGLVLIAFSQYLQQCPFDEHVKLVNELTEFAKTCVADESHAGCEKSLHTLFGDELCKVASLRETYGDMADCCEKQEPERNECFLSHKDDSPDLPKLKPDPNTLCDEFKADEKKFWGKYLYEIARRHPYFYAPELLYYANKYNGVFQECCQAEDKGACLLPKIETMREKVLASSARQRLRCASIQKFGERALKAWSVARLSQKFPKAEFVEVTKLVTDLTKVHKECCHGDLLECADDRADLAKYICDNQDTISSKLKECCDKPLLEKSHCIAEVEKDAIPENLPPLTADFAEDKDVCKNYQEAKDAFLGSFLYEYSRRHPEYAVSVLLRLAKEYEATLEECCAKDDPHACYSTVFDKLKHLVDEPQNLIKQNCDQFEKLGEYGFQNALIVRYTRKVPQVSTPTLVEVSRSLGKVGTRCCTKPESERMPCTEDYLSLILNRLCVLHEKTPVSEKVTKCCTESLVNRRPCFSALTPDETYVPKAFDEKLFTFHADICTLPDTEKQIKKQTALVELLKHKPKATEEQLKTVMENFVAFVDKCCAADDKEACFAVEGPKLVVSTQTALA
substance,measurement,setting,value
Ace protein of E. faecalis strain V583 (native; on 46°C-grown cells or in mutanolysin extract),% of cells bound,[1],0.7%
same,% of cells bound,[2],29.2%
same,% of cells bound,Collagen type IV (Sigma) [3],38.1%
same,% of cells bound,[4],29.4%
Recombinant E. faecalis EF1 Ace A domain (N-terminal His6-tag fusion protein),Kd,[5],48 µM
Ace protein of E. faecalis strain MC02152 (native; on cells or in mutanolysin extract),% of cells bound,[6],26.7%
same,% of cells bound,[7],29%
same,% of cells bound,Collagen type IV (Sigma) [8],27.7%
same,% of cells bound,Collagen type IV (Sigma) [9],38%
same,% of cells bound,[10],7.1%
same,% of cells bound,[11],26%
same,% of cells bound,[12],41%
same,% of cells bound,[13],6%
same,% of cells bound,Collagen type IV (Sigma) [14],8.9%
same,% of cells bound,[15],0.6%
Ace protein of E. faecalis strain OG1RF (native; on 46°C-grown cells or in mutanolysin-PMSF extracts),"fold decrease in adherence, ace mutant TX5256 against OG1RF",Collagen type IV (Sigma) [16],27.4 fold
same,% of cells bound,[17],25.6%
same,% of cells bound,Collagen type IV (Sigma) [18],27.7%
same,% of cells bound,[19],31.9%
same,% of cells bound,[20],21.1%
same,% of cells bound,[21],32%
same,% of cells bound,[22],0.9%
same,% of cells bound,[23],0.6%
same,% of cells bound,Collagen type IV (Sigma) [24],29.6%
same,% of cells bound,[25],24.6%
same,"fold decrease in adherence, ace mutant TX5256 against OG1RF",[26],32.9 fold
same,"fold decrease in percentage of binding, ace mutant TX5256 against OG1RF",[27],6.5 fold
